Substrate in this data set: O=[N+]([O-])c1ccccc1O[C@@H]1O[C@H](CO)[C@H](O)[C@H](O)[C@H]1O
In words: purified protein. To be noted: free enzyme, not displayed on spores, ONPG 0.83-20 mM, general assay printed as 20 mM potassium phosphate pH 6.0, 75 °C (spore assay). Type of data set: biochemical, Geobacillus kaustophilus.

B1: Bsβ–Gal (Geobacillus kaustophilus) (protein)
chain: MNVLSSICYGGDYNPEQWPEEIWYEDAKLMQKAGVNLVSLGIFSWSKIEPSDGVFDFEWLDKVIDILYDHGVYINLGTATATTPAWFVKKYPDSLPIDESGVILSFGSRQHYCPNHPQLITHIKRLVRAIAERYKNHPALKMWHVNNEYACHVSKCFCENCAVAFRKWLKERYKTIDELNERWGTNFWGQRYNHWDEINPPRKAPTFINPSQELDYYRFMNDSILKLFLTEKEILREVTPDIPVSTNFMGSFKPLNYFQWAQHVDIVTWDSYPDPREGLPIQHAMMNDLMRSLRKGQPFILMEQVTSHVNWRDINVPKPPGVMRLWSYATIARGADGIMFFQWRQSRAGAEKFHGAMVPHFLNENNRIYREVTQLGQELKKLDCLVGSRIKAEVAIIFDWENWWAVELSSKPHNKLRYIPIVEAYYRELYKRNIAVDFVRPSDDLTKYKVVIAPMLYMVKEGEDENLRQFVANGGTLIVSFFSGIVDENDRVHLGGYPGPLRDILGIFVEEFVPYPETKVNKIYSNDGEYDCTTWADIIRLEGAEPLATFKGDWYAGLPAVTRNCYGKGEGIYVGTYPDSNYLGRLLEQVFAKHHINPILEVAENVEVQQRETDEWKYLIIINHNDYEVTLSLPEDKIYQNMIDGKCFRGGELRIQGVDVAVLREHDEAGKV
notes: full-length bgaB in pET-28a (PCR from pJS-cotY-bgaB), expressed in E. coli BL21(DE3), heat treatment and Ni-NTA, free enzyme; printed as tetrameric
Take B1: the Km (commonly the substrate concentration at which the rate is half of its maximum) is 2970 ± 50 µM.

The values above are taken from article PMC7926950, “Constructing an Efficient Bacillus subtilis Spore Display by Using Cohesin−Dockerin Interactions” (Molecules, 2021).
